According to patent publication US20260167699A1 (Chugai, published 2026):

T1: FcγRIIb (human, UniProt P31994 43-217)
T1 construct: extracellular domain; also called 2b
T1 sequence: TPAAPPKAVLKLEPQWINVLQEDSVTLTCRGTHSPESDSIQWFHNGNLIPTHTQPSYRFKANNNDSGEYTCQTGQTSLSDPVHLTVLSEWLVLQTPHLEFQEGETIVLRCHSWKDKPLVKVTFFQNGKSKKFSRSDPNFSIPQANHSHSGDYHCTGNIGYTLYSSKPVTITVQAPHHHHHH

T2: FcγRIIa(R) (human, UniProt P12318 34-217)
T2 construct: extracellular domain; also called 2aR
T2 sequence: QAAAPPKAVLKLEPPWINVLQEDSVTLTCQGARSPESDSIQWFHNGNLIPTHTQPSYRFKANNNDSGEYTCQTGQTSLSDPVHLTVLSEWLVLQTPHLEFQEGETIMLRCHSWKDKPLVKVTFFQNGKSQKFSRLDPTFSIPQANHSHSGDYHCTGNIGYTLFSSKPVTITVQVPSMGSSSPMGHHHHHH

T3: FcγRIIa(H) (human, UniProt P12318 34-217)
T3 construct: extracellular domain; also called 2aH
T3 sequence: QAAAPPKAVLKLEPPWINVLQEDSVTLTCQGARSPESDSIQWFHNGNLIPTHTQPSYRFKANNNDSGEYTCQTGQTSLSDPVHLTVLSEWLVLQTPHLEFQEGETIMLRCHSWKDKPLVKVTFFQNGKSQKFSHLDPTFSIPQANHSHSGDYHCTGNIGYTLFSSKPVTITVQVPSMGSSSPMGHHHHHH


Assays:
Test in all cases: SPR, relative to GpH7-A5/GpH7-B3/GpL16-k0 =100
FcγRIIb = molecular target: T1, FcγRIIb
FcγRIIa(R) = molecular target: T2, FcγRIIa(R)
FcγRIa = molecular target: T4, FcγRIa (human, UniProt P12314 16-292)
T4 construct: extracellular domain; also called 1a

FcγRIIa(H) = molecular target: T3, FcγRIIa(H)

T4 sequence (P12314 other isoform, or with tags, fused parts or gaps): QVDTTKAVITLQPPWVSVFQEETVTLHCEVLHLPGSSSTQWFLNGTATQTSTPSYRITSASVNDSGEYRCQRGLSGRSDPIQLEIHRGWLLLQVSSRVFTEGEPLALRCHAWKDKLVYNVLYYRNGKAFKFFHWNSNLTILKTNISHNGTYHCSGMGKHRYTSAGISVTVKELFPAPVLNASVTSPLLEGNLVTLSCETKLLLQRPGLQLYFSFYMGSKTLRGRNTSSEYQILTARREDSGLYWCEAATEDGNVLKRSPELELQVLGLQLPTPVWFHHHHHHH

| Binder | He/Con 2b (FcγRIIb) [%] | He/Con 2aR (FcγRIIa(R)) [%] | He/Con 1a (FcγRIa) [%] | He/Con 2aH (FcγRIIa(H)) [%] |
| --- | --- | --- | --- | --- |
| GpH7-A5/GpH7-B3 variant Y296_03V/GpL16-k0 (antibody, human IgG1, kappa, He Ab: heterodimerized IgG1, one H chain mutated) heavy 1: not shown heavy 2: not shown light: DIVMTQSPLSLPVTPGEPASISCQASESLVHSNRNTYLHWYLQKPGQSPQLLIYKVSNRFSGVPDRFSGSGSGTDFTLKISRVEAEDVGVYYCSQNTHVPPTFGQGTKVEIERTVAAPSVFIFPPSDEQLKSGTASVVCLLNNFYPREAKVQWKVDNALQSGNSQESVTEQDSKDSTYSLSSTLTLSKADYEKHKVYACEVTHQGLSSPVTKSFNRGEC | 80.4 | 92 | 101 | 86.9 |
| GpH7-A5/GpH7-B3 variant Y296_18N/GpL16-k0 (antibody, human IgG1, kappa, He Ab: heterodimerized IgG1, one H chain mutated) heavy 1: not shown heavy 2: not shown light: DIVMTQSPLSLPVTPGEPASISCQASESLVHSNRNTYLHWYLQKPGQSPQLLIYKVSNRFSGVPDRFSGSGSGTDFTLKISRVEAEDVGVYYCSQNTHVPPTFGQGTKVEIERTVAAPSVFIFPPSDEQLKSGTASVVCLLNNFYPREAKVQWKVDNALQSGNSQESVTEQDSKDSTYSLSSTLTLSKADYEKHKVYACEVTHQGLSSPVTKSFNRGEC | 92.8 | 99.6 | 102 | 101 |
| GpH7-A5/GpH7-B3 variant Y296_13S/GpL16-k0 (antibody, human IgG1, kappa, He Ab: heterodimerized IgG1, one H chain mutated) heavy 1: not shown heavy 2: not shown light: DIVMTQSPLSLPVTPGEPASISCQASESLVHSNRNTYLHWYLQKPGQSPQLLIYKVSNRFSGVPDRFSGSGSGTDFTLKISRVEAEDVGVYYCSQNTHVPPTFGQGTKVEIERTVAAPSVFIFPPSDEQLKSGTASVVCLLNNFYPREAKVQWKVDNALQSGNSQESVTEQDSKDSTYSLSSTLTLSKADYEKHKVYACEVTHQGLSSPVTKSFNRGEC | 87.5 | 97.5 | 102 | 96.1 |
| GpH7-A5/GpH7-B3 variant Y296_12R/GpL16-k0 (antibody, human IgG1, kappa, He Ab: heterodimerized IgG1, one H chain mutated) heavy 1: not shown heavy 2: not shown light: DIVMTQSPLSLPVTPGEPASISCQASESLVHSNRNTYLHWYLQKPGQSPQLLIYKVSNRFSGVPDRFSGSGSGTDFTLKISRVEAEDVGVYYCSQNTHVPPTFGQGTKVEIERTVAAPSVFIFPPSDEQLKSGTASVVCLLNNFYPREAKVQWKVDNALQSGNSQESVTEQDSKDSTYSLSSTLTLSKADYEKHKVYACEVTHQGLSSPVTKSFNRGEC | 80.5 | 95.3 | 103 | 89.1 |
| GpH7-A5/GpH7-B3 variant Y296_09D/GpL16-k0 (antibody, human IgG1, kappa, He Ab: heterodimerized IgG1, one H chain mutated) heavy 1: not shown heavy 2: not shown light: DIVMTQSPLSLPVTPGEPASISCQASESLVHSNRNTYLHWYLQKPGQSPQLLIYKVSNRFSGVPDRFSGSGSGTDFTLKISRVEAEDVGVYYCSQNTHVPPTFGQGTKVEIERTVAAPSVFIFPPSDEQLKSGTASVVCLLNNFYPREAKVQWKVDNALQSGNSQESVTEQDSKDSTYSLSSTLTLSKADYEKHKVYACEVTHQGLSSPVTKSFNRGEC | 100 | 101 | 103 | 102 |
| GpH7-A5/GpH7-B3 variant Y296_19Q/GpL16-k0 (antibody, human IgG1, kappa, He Ab: heterodimerized IgG1, one H chain mutated) heavy 1: not shown heavy 2: not shown light: DIVMTQSPLSLPVTPGEPASISCQASESLVHSNRNTYLHWYLQKPGQSPQLLIYKVSNRFSGVPDRFSGSGSGTDFTLKISRVEAEDVGVYYCSQNTHVPPTFGQGTKVEIERTVAAPSVFIFPPSDEQLKSGTASVVCLLNNFYPREAKVQWKVDNALQSGNSQESVTEQDSKDSTYSLSSTLTLSKADYEKHKVYACEVTHQGLSSPVTKSFNRGEC | 90.5 | 97.9 | 108 | 94.3 |
| GpH7-A5/GpH7-B3 variant Y296_06M/GpL16-k0 (antibody, human IgG1, kappa, He Ab: heterodimerized IgG1, one H chain mutated) heavy 1: not shown heavy 2: not shown light: DIVMTQSPLSLPVTPGEPASISCQASESLVHSNRNTYLHWYLQKPGQSPQLLIYKVSNRFSGVPDRFSGSGSGTDFTLKISRVEAEDVGVYYCSQNTHVPPTFGQGTKVEIERTVAAPSVFIFPPSDEQLKSGTASVVCLLNNFYPREAKVQWKVDNALQSGNSQESVTEQDSKDSTYSLSSTLTLSKADYEKHKVYACEVTHQGLSSPVTKSFNRGEC | 89 | 96.8 | 101 | 94.2 |
| GpH7-A5/GpH7-B3 variant Y296_04F/GpL16-k0 (antibody, human IgG1, kappa, He Ab: heterodimerized IgG1, one H chain mutated) heavy 1: not shown heavy 2: not shown light: DIVMTQSPLSLPVTPGEPASISCQASESLVHSNRNTYLHWYLQKPGQSPQLLIYKVSNRFSGVPDRFSGSGSGTDFTLKISRVEAEDVGVYYCSQNTHVPPTFGQGTKVEIERTVAAPSVFIFPPSDEQLKSGTASVVCLLNNFYPREAKVQWKVDNALQSGNSQESVTEQDSKDSTYSLSSTLTLSKADYEKHKVYACEVTHQGLSSPVTKSFNRGEC | 101 | 105 | 101 | 97.8 |
| GpH7-A5/GpH7-B3 variant Y296_20W/GpL16-k0 (antibody, human IgG1, kappa, He Ab: heterodimerized IgG1, one H chain mutated) heavy 1: not shown heavy 2: not shown light: DIVMTQSPLSLPVTPGEPASISCQASESLVHSNRNTYLHWYLQKPGQSPQLLIYKVSNRFSGVPDRFSGSGSGTDFTLKISRVEAEDVGVYYCSQNTHVPPTFGQGTKVEIERTVAAPSVFIFPPSDEQLKSGTASVVCLLNNFYPREAKVQWKVDNALQSGNSQESVTEQDSKDSTYSLSSTLTLSKADYEKHKVYACEVTHQGLSSPVTKSFNRGEC | 105 | 105 | 107 | 95.4 |
| GpH7-A5/GpH7-B3 variant Y296_07I/GpL16-k0 (antibody, human IgG1, kappa, He Ab: heterodimerized IgG1, one H chain mutated) heavy 1: not shown heavy 2: not shown light: DIVMTQSPLSLPVTPGEPASISCQASESLVHSNRNTYLHWYLQKPGQSPQLLIYKVSNRFSGVPDRFSGSGSGTDFTLKISRVEAEDVGVYYCSQNTHVPPTFGQGTKVEIERTVAAPSVFIFPPSDEQLKSGTASVVCLLNNFYPREAKVQWKVDNALQSGNSQESVTEQDSKDSTYSLSSTLTLSKADYEKHKVYACEVTHQGLSSPVTKSFNRGEC | 85.5 | 96.7 | 101 | 92.7 |
| GpH7-A5/GpH7-B3 variant Y296_14T/GpL16-k0 (antibody, human IgG1, kappa, He Ab: heterodimerized IgG1, one H chain mutated) heavy 1: not shown heavy 2: not shown light: DIVMTQSPLSLPVTPGEPASISCQASESLVHSNRNTYLHWYLQKPGQSPQLLIYKVSNRFSGVPDRFSGSGSGTDFTLKISRVEAEDVGVYYCSQNTHVPPTFGQGTKVEIERTVAAPSVFIFPPSDEQLKSGTASVVCLLNNFYPREAKVQWKVDNALQSGNSQESVTEQDSKDSTYSLSSTLTLSKADYEKHKVYACEVTHQGLSSPVTKSFNRGEC | 89.4 | 98.6 | 102 | 97.2 |
| GpH7-A5/GpH7-B3 variant Y296_16H/GpL16-k0 (antibody, human IgG1, kappa, He Ab: heterodimerized IgG1, one H chain mutated) heavy 1: not shown heavy 2: not shown light: DIVMTQSPLSLPVTPGEPASISCQASESLVHSNRNTYLHWYLQKPGQSPQLLIYKVSNRFSGVPDRFSGSGSGTDFTLKISRVEAEDVGVYYCSQNTHVPPTFGQGTKVEIERTVAAPSVFIFPPSDEQLKSGTASVVCLLNNFYPREAKVQWKVDNALQSGNSQESVTEQDSKDSTYSLSSTLTLSKADYEKHKVYACEVTHQGLSSPVTKSFNRGEC | 93.5 | 100 | 103 | 101 |
| GpH7-A5/GpH7-B3 variant Y296_10E/GpL16-k0 (antibody, human IgG1, kappa, He Ab: heterodimerized IgG1, one H chain mutated) heavy 1: not shown heavy 2: not shown light: DIVMTQSPLSLPVTPGEPASISCQASESLVHSNRNTYLHWYLQKPGQSPQLLIYKVSNRFSGVPDRFSGSGSGTDFTLKISRVEAEDVGVYYCSQNTHVPPTFGQGTKVEIERTVAAPSVFIFPPSDEQLKSGTASVVCLLNNFYPREAKVQWKVDNALQSGNSQESVTEQDSKDSTYSLSSTLTLSKADYEKHKVYACEVTHQGLSSPVTKSFNRGEC | 99.4 | 98.2 | 102 | 94 |
| GpH7-A5/GpH7-B3 variant Y296_08L/GpL16-k0 (antibody, human IgG1, kappa, He Ab: heterodimerized IgG1, one H chain mutated) heavy 1: not shown heavy 2: not shown light: DIVMTQSPLSLPVTPGEPASISCQASESLVHSNRNTYLHWYLQKPGQSPQLLIYKVSNRFSGVPDRFSGSGSGTDFTLKISRVEAEDVGVYYCSQNTHVPPTFGQGTKVEIERTVAAPSVFIFPPSDEQLKSGTASVVCLLNNFYPREAKVQWKVDNALQSGNSQESVTEQDSKDSTYSLSSTLTLSKADYEKHKVYACEVTHQGLSSPVTKSFNRGEC | 83.5 | 93.7 | 101 | 86.9 |
| GpH7-A5/GpH7-B3 variant Y296_11K/GpL16-k0 (antibody, human IgG1, kappa, He Ab: heterodimerized IgG1, one H chain mutated) heavy 1: not shown heavy 2: not shown light: DIVMTQSPLSLPVTPGEPASISCQASESLVHSNRNTYLHWYLQKPGQSPQLLIYKVSNRFSGVPDRFSGSGSGTDFTLKISRVEAEDVGVYYCSQNTHVPPTFGQGTKVEIERTVAAPSVFIFPPSDEQLKSGTASVVCLLNNFYPREAKVQWKVDNALQSGNSQESVTEQDSKDSTYSLSSTLTLSKADYEKHKVYACEVTHQGLSSPVTKSFNRGEC | 73.8 | 90.3 | 102 | 83.7 |
| GpH7-A5/GpH7-B3 variant Y300_01G/GpL16-k0 (antibody, human IgG1, kappa, He Ab: heterodimerized IgG1, one H chain mutated) heavy 1: not shown heavy 2: not shown light: DIVMTQSPLSLPVTPGEPASISCQASESLVHSNRNTYLHWYLQKPGQSPQLLIYKVSNRFSGVPDRFSGSGSGTDFTLKISRVEAEDVGVYYCSQNTHVPPTFGQGTKVEIERTVAAPSVFIFPPSDEQLKSGTASVVCLLNNFYPREAKVQWKVDNALQSGNSQESVTEQDSKDSTYSLSSTLTLSKADYEKHKVYACEVTHQGLSSPVTKSFNRGEC | 63.2 | 66.6 | 110 | 82.6 |
